Results: patent publication EP1828247B1 (Crucell Holland B.V., dated 2011)

T1: recombinantly expressed purified soluble WNV E protein (strain 382-99), truncated form with Myc and His tags (West Nile virus strain 382-99, UniProt Q9Q6P4 291-696)
T1 construct: also called recombinant WNV-E protein; truncated E protein; not shown: Myc tag and His tag from pAdapt.myc.his
T1 sequence: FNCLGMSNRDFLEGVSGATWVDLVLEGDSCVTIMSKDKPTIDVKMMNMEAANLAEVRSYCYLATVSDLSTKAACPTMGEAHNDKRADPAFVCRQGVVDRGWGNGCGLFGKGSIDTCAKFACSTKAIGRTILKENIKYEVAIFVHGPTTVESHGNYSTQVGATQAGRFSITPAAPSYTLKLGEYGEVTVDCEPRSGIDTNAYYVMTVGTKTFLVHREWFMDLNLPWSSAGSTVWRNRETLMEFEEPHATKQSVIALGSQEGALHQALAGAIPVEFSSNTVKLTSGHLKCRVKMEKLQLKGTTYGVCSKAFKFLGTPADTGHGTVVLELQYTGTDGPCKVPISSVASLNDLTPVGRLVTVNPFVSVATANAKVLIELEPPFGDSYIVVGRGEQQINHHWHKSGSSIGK

B1: SC04-361 (scFv)
scFv: EVQLVQSGAEVKKPGESLKISCKASGFSFSTYWIGWVRQMPGKGLEWMGIIYPADSDTRYSPSFQGQVTISADKSISTAYLQWSSLKASDTAMYYCARLRGPYYDFWNGYRETHDAFNVWGQGTMVTVSSGTGGSGGTGSGTGGSTDVVMTQSPDSLAVSLGERATINCKSSQNILDNSDNKNFLAWYQQKPGQPPKLLIYWASARESGVPDRFSGSGSGTDFTLTISSLQAEDVALYYCQQYYNTPITFGQGTRLEIKR
B2: SC04-299 (scFv)
scFv: EVQLVETGGGVVQPGRSLRLSCAASGFTFSGYAMHWVRQAPGKGLDWVAVISYDGSEKYSADSVKGRFTISRDNSKNTLYLQMNSLRAEDTAVYYCAKESGGPIWYKYYGVDVWGQGTTVTVSSGTGGSGGTGSGTGGSTSYVLTQPPSLSAAPRQRVTISCSGSSSNIGNYGVNWYQQLPGKAPKLLIYYDDLLPSGVSDRFSGSKSGTSASLAISGLQSEDEGDYYCAAWDDTLSAWVFGGGTKLTVLG
B3: SC04-353 (scFv)
scFv: EVQLVQSGGGVVQPGRSLRLSCAASGFTFSNYAMHWVRQAPGKGLEWVAVISYDGGNKYYADSVKGRFTMSRDNSKNTLYLQMNSLRAEDTAVYYCARDFWSGYSMVDSYYYYMDVWGKGTTVTVSSGTGGSGGTGSGTGGSTETTLTQSPGTLSLSPGERATLSCRASQSVSNTFLAWYQQKPGQAPRLLIYGASSRATGIPDRFSGSGSGTDFTLTISRLEPEDFAAYYCQQYGSSLTFGPGTKVDIKR
B4: SC04-283 (scFv)
scFv: EVQLVQSGAEVKKSGESLKISCKGSGYTFNTYWIGWVRQMPGKGLEWMGIIYPGDSDTIYSPSFQGQVTISADKSISTAYLQWSSLKASDSAMYYCARLTFRRGYSGSDSFLPPGDFDYWGQGTLVTVSSGTGGSGGTGSGTGGSTDIQMTQSPSTLSASVGDRVTITCRASQSISSWLAWYQQKPGKAPNLLIYAASSLQSGVPSRFSGSGSGTDFTLTISSLQPDDSATYYCQQYNTYPLTFGGGTKVEIKR
B5: SC04-271 (scFv)
scFv: EVQLVETGAEVKKPGESLRISCKGSGYTFNNYWIGWVRQMPGKGLEWMGIIYPGDSDTRYSPSVQGHVTISADKSINTAYLQWSSLKASDTAVYYCARRPGYDYGFYYFDYWGQGTLVTVSSGTGGSGGTGSGTGGSTQSALTQPRSVSGSPGQSVTISCTGTSSDVGGYNYVSWYQHHPGKAPKLMIYDVSNRPLGVSNRFSGSKSGNTASLTISGLQAEDEADYYCSSYTSSSTYVFGTGTHLTVLS
B6: SC04-289 (scFv)
scFv: QMQLVQSGAEVKKPGESLRISCKGSGYSFTSNWITWVRQMPGKGLEWMGRIDPSDSYTNYSPSFQGHVTISADKSISTAYLQWSSLKASDTAMYYCARDVVGVGASDYYYYMDVWGKGTTVTVSSGTGGSGGTGSGTGGSTEIVLTQSPGTLSLSPGETATLSCRTSQSVSSSYLGWYQQKPGQAPRLLIYGASIRATGIPARFSGSGSGTEFTLTIDSLQSEDFAVYYCQQYNNWPPITFGQGTRLEIKR
B7: SC04-311 (scFv)
scFv: EVQLVQSGGGVVQPGRSLRLSCVASGFTFSKDAMHWVRQAPGKGLEWVAVISYDGSDKHYADSVKGRVTISRDNSRKTLYLRMDSLRAEDTALYYCARGYNSGHYFDYWGQGTLITVSSGTGGSGGTGSGTGGSTQSVLTQPPSVSAAPGQKVTISCSGTSSNIGDNYVSWYQHLPGTAPKLLIYDNNKRPSGIPDRFSGSKSGTSATLGVTGLQTGDEADYYCGTWDSSLTAVVFGGGTKLTVLG

molecular target: T1, recombinantly expressed purified …; assay: phage antibody ELISA on coated recombinant soluble WNV E protein

| Binder | OD 492nm |
| --- | --- |
| B1 | 0.076 OD 492nm |
| B2 | 0.072 OD 492nm |
| B3 | 0.099 OD 492nm |
| B4 | 0.074 OD 492nm |
| B5 | 0.608 OD 492nm |

molecular target: T1, recombinantly expressed purified …; assay: as above; remark: another data set of the same source

| Binder | binding result |
| --- | --- |
| B1 | no binding |
| B3 | no binding |

molecular target: T2, West Nile virus strain USA99b (strain 385-99), whole virus (West Nile virus strain 385-99 (USA99b)); assay: phage antibody ELISA on coated whole inactivated WNV
T2 construct: also called WN virus; WNV

| Binder | OD 492nm |
| --- | --- |
| B2 | 1.07 OD 492nm |
| B6 | 0.759 OD 492nm |
| B4 | 1.21 OD 492nm |
| B5 | 0.984 OD 492nm |
| B7 | 1.04 OD 492nm |
